Data published in US20100279930A1 (published 2010).
No end group written: not given here.

Each binder was assayed against T1, human Y4 receptor (human, UniProt P50391 1-375) (assay: 125I-PP displacement assay, human Y4 receptor membranes).
T1 construct: whole, on cells; Used as a cell membrane preparation from transfected HEK-293T cells, not as intact cells; also called Human Y Receptor-4
T1 sequence (P50391 whole entry): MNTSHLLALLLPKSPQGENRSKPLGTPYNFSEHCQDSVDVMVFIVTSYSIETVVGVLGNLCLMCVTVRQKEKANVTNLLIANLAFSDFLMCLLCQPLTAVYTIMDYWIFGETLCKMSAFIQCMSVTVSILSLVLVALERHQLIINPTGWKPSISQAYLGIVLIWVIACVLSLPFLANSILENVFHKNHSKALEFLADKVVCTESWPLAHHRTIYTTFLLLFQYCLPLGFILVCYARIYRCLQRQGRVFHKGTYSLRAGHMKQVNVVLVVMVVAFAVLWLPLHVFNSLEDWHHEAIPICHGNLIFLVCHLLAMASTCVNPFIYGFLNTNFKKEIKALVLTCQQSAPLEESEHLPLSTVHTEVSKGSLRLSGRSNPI

Binder | binding result
KAPLEPVYPGDNATPEQMAQYAADLRRYINMLTRPRY (Synthetic analogue of human PP with an additional amino acid at position 0) [compound of SEQ ID NO:52 (code 6647)] | binds
HAPLEPVYPGDNATPEQMAQYAADLRRYINMLTRPRY (Synthetic analogue of human PP with an additional amino acid at position 0) [compound of SEQ ID NO:53 (code 6650)] | binds
PAPLEPVYPGDNATPEQMAQYAADLRRYINMLTRPRY (Synthetic analogue of human PP with an additional amino acid at position 0) [compound of SEQ ID NO:56 (code 6653)] | binds
AAPLEPVYPGDNATPEQMAQYAAALRRYINKLTRPRY (Synthetic analogue of human PP with additional Ala at position 0, Ala at 23 and Lys at 30) [compound of SEQ ID NO:168 (Ala 0, Ala 23 and Lys 30, code 7215)] | binds
AAPLEPVYPGDNATPEQMAQYAADLRRYINKLTRPRY (ends and bridges not checked, Synthetic analogue of human PP; introduced as additional Ala at position 0 and Lys at position 30, later in the same paragraph labelled 'Ala 0, Lys 19') [compound of SEQ ID NO:171 (code 7218)] | binds
AAPLEPVYPGDNATPEQMAKYAADLRRYINKLTRPRY (Synthetic analogue of human PP with additional Ala at position 0, Lys at 19 and Lys at 30) [compound of SEQ ID NO:348 (Ala 0, Lys19, Lys 30, code 4056385)] | binds
PAPLEAVYPGDNATPEQMARYYSELRRYINKLTRPRY (ends and bridges not checked, Synthetic analogue of human PP; cited for Ala at position 5) [compound of SEQ ID NO:702 (code 4058286)] | binds
APLEPVYPGDNATPEQMAQYAADLRRYINMLTRQRY (ends and bridges not checked, Synthetic analogue of human PP; cited for changes at positions 34-36) [compound of SEQ ID NO:24 (code 6453)] | binds
APLEPVYPGDNATPEQMAQYAAALRRYINKLTRPRY (Synthetic analogue of human PP with Ala at position 23 and Lys at position 30) [compound of SEQ ID NO:167 (code 7214)] | binds
APLEPVYPGDNATPEQMAQYAADLRRYINMLTRPRF (ends and bridges not checked, Synthetic analogue of human PP; cited for changes at positions 34-36) [compound of SEQ ID NO:255 (code 4055708)] | binds
APLEPVYPGDNATPEQMAQYAADLRRYINILTRPRY (ends and bridges not checked, Synthetic analogue of human PP; cited for changes at positions 29-31) [compound of SEQ ID NO:259 (code 4055713)] | binds
APLEPVYPGDNATPEQMAQYAADLRRYINVLTRPRY (ends and bridges not checked, Synthetic analogue of human PP; cited for changes at positions 29-31) [compound of SEQ ID NO:260 (code 4055714)] | binds
APLEPVYPGDNATPEQMAQYAADLRRYINFLTRPRY (ends and bridges not checked, Synthetic analogue of human PP; cited for changes at positions 29-31) [compound of SEQ ID NO:261 (code 4055715)] | binds
APLEPFYPGDNATPEQMAQYAADLRRYINMLTRPRY (ends and bridges not checked, Synthetic analogue of human PP; cited for a change at position 6) [compound of SEQ ID NO:275 (code 4055745)] | binds
APLEPEYPGDNATPEQMAQYAADLRRYINMLTRPRY (ends and bridges not checked, Synthetic analogue of human PP; cited for a change at position 6) [compound of SEQ ID NO:276 (4055746)] | binds
GAPLEPHAPGDNATPEEMAKYAAELRRYINKLTRPRY (ends and bridges not checked, Synthetic analogue of human PP; cited for a change at position 7) [compound of SEQ ID NO:1090 (code 4059937)] | binds
APLEPVYPGDNATPEQMAQYAADLRRYINMLTRPHRY (ends and bridges not checked, Synthetic analogue of human PP; cited for changes at positions 34-36) [compound of SEQ ID NO:62 (code 6659)] | binds

What follows are binders tested against T1, human Y4 receptor (assay: 125I-PP displacement assay, human Y4 receptor membranes; weaker reference compound).

Binder | binding result
APLEPVYPGDNATPEQMAKYAADLRRYINMLTRPRY (Synthetic analogue of human PP with Lys at position 19) [compound of SEQ ID NO:224 (Lys 19, code 4055291)] | binds
APLEPVYPGDNATPEQMAQYAAALRRYINMLTRPRY (Synthetic analogue of human PP with Ala at position 23) [compound of SEQ ID NO:277 (Ala 23, code 4055747)] | binds
APLEPVYPGDNATPEQMAQYAADLRRYINKLTRPRY (Synthetic analogue of human PP with Lys at position 30) [compound of SEQ ID NO:281 (Lys 30, code 4055855)] | binds
AAPLEPVYPGDNATPEQMAQYAADLRRYINMLTRPRY (Synthetic analogue of human PP with an additional Ala at position 0) [compound of SEQ ID NO:9 (Ala 0, code 6433)] | binds
